Drawing on the supplement of paper PMC10126150, this text covers switch fluorescence ratio for 52 sequences.

The data set has as its system ATP. The experiment in a line: switch fluorescence ratio, 500 uM ATP over buffer (Cy3 cluster intensity, sum of 5 cycles each) (fold (ratio)); higher = stronger signal-on switching upon ATP binding; sequences stand for … in TCGTCGGCAGCGTCAGATGTGTATAAGAGACAGTTTTTTTTTTTTTTTTTTTTTTTTT…TC. As to conditions: aptamer strand: ATP DNA aptamer (quencher-CACCTGGGGGAGTATTGCGGAGGAAGG + anchor), 100 nM annealed; ATP concentration: 500 uM. Put shortly:
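After annealing to 100 nM quencher-labelled ATP aptamer, Cy3-labelled switching-strand clusters on a modified Illumina MiSeq flow-cell were imaged in selection buffer. A second image followed after 15 min with 500 uM ATP at 22 °C, and five such buffer/ATP cycles were done, each separated by NaOH stripping and re-annealing. The fluorescence ratio, averaged per switch-domain sequence, is summed target-cycle over summed buffer-cycle Cy3 intensity per cluster, with clusters outside 100-1000 RFU excluded.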

± gives the standard deviation of the averaged measurements.
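Note: ATP exposure 15 min at 22 °C before imaging.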

With TGGGTAAGTT, the switch fluorescence ratio amounted to 0.996 ± 0.039. For the sequence GCTAAACGTG, the switch fluorescence ratio was found to be 0.959 ± 0.014.

As to AAGGGGATTT, the switch fluorescence ratio turned out to be 0.975 ± 0.016.

GGGGGGAGAG: the switch fluorescence ratio is 0.989 ± 0.045.

For AAGCATGGGC, the switch fluorescence ratio amounted to 1.02 ± 0.029.

For GGTCTAGGCA, the switch fluorescence ratio is 0.987 ± 0.02. For GTTAGAGGTT the value was 0.999 ± 0.03. As to GTGATCTGAT, the switch fluorescence ratio was found to be 1.01 ± 0.029. The value for GGGGGAGTTC was 1.02 ± 0.014; that for GTTAGTGATG was 0.9838 ± 0.003.

In the case of TGTGAGACTT, the switch fluorescence ratio was determined as 1.01 ± 0.052. Turning to TTTGAGACAG, the switch fluorescence ratio was 0.994 ± 0.026. As for TTGCACAATT, the switch fluorescence ratio was determined as 1.01 ± 0.057. On to GTAGGACTGC, for which the switch fluorescence ratio came to 1.01 ± 0.021. Regarding TAAAGCAGCT, the switch fluorescence ratio was found to be 0.965 ± 0.04. Take TTTTTTGGT: the switch fluorescence ratio worked out at 0.986 ± 0.016.

Regarding AAGCGCAGAC, the switch fluorescence ratio turned out to be 2.32 ± 0.079. For TTGGGAAAAA, the switch fluorescence ratio turned out to be 1.14 ± 0.23.

For the sequence CGATTTTGTA, the switch fluorescence ratio was 1.01 ± 0.051. Take CTTTAAGGCA: the switch fluorescence ratio came out at 0.981 ± 0.017. For the sequence TTTGTTGTCA, the switch fluorescence ratio was 0.974 ± 0.016.

As to CTAAAAAATT, the switch fluorescence ratio amounted to 1.01 ± 0.022. Regarding AAGGCTTCGG, the switch fluorescence ratio was determined as 0.998 ± 0.032. The value for CTTGAGCAGG was 1.2 ± 0.038; that for CCTGTAAATG was 1.15 ± 0.21; that for TACGTTTAAT was 1.04 ± 0.031. Regarding GGATAATGCT, the switch fluorescence ratio is 0.9597 ± 0.0094.

As for TCGAGCACTG, the switch fluorescence ratio stood at 1.13 ± 0.065. As to AATGGCTAGG, the switch fluorescence ratio amounted to 1.01 ± 0.014. On to GGTATATAAA, for which the switch fluorescence ratio was determined as 1.003 ± 0.0029. With GCGGCTATGG, the switch fluorescence ratio stood at 1.01 ± 0.019. For ATTCGAGGGG the value was 1.03 ± 0.061; for AATGGTCGGC, 0.996 ± 0.011. The value for ATGGTTTTAT was 1.01 ± 0.045; that for GCGTTTAGTA was 0.992 ± 0.03; that for GTGCCAAGGG was 1.16 ± 0.21. As to ATTTTTTCCT, the switch fluorescence ratio came to 1.03 ± 0.022. Turning to CGGTGTGTCT, the switch fluorescence ratio is 1.02 ± 0.019.

Consider GGATTAATCA, for which the switch fluorescence ratio was 1.01 ± 0.035.

Turning to GAGTTTGTTT, the switch fluorescence ratio worked out at 0.99 ± 0.044. GAGGTGTTCA: the switch fluorescence ratio turned out to be 1.01 ± 0.02. As for AGGGGGGGCC, the switch fluorescence ratio came out at 0.992 ± 0.038. For AAAGCGGATG the value was 0.986 ± 0.077; for GCCGGGAGTA, 1.004 ± 0.0031; for CGTATGCAGT, 1.01 ± 0.011. Regarding TATATATTGC, the switch fluorescence ratio is 1.02 ± 0.03. GGATTAAATC: the switch fluorescence ratio was determined as 1.001 ± 0.0086. With TACTATTGGA, the switch fluorescence ratio is 1.01 ± 0.021. TCAAAGTACC: the switch fluorescence ratio turned out to be 1.16 ± 0.073.

Regarding TGGGGGTTGT, the switch fluorescence ratio was determined as 0.987 ± 0.025. On to TGAATGATTG, for which the switch fluorescence ratio worked out at 0.995 ± 0.013. Regarding ATTGGTGGTT, the switch fluorescence ratio was 1 ± 0.074.
